Common to all, as to test: SPR (Biacore T200), TYRP1 ECD-Fc captured by anti-PGLALA antibody, 1:1 Langmuir fit
For orientation: SPR reads the build-up and loss of mass on a sensor chip optically.

Experiment [1] has as its target Mouse TYRP1 extracellular domain (ECD), monomeric fusion to human Fc domain with knob-into-hole and PG LALA modifications and C-terminal Avi-tag (mouse) [IgG part: P01857].
Experiment [2] deals with Human TYRP1 extracellular domain (ECD), monomeric fusion to human Fc domain with knob-into-hole and PG LALA modifications and C-terminal Avi-tag (human) [IgG part: P01857].
In experiment [3] the target is Cynomolgus TYRP1 extracellular domain (ECD), monomeric fusion to human Fc domain with knob-into-hole and PG LALA modifications and C-terminal Avi-tag (cynomolgus monkey) [IgG part: P01857].

The term Kd denotes the equilibrium constant for the complex coming apart. High values mean a looser complex, low ones a tighter complex.

Consider 親TA99抗体 (parental TYRP1 antibody TA99), for which the dissociation constant Kd in experiment [1] is 0.31 nM; in experiment [2], 0.09 nM; in experiment [3] it was 0.12 nM.

(Values after patent JP2022028645A.)
